The values below come from publication PMC9098846, “Molecular insights into biogenesis of glycosylphosphatidylinositol anchor proteins” (Nature Communications, 2022).

This assay has as its target T1, PIGT, subunit of the human GPI transamidase (GPI-T) (human) (UniProt Q969N2).
T1 sequence (chain, disulfide bond from C182 to PIGK C92): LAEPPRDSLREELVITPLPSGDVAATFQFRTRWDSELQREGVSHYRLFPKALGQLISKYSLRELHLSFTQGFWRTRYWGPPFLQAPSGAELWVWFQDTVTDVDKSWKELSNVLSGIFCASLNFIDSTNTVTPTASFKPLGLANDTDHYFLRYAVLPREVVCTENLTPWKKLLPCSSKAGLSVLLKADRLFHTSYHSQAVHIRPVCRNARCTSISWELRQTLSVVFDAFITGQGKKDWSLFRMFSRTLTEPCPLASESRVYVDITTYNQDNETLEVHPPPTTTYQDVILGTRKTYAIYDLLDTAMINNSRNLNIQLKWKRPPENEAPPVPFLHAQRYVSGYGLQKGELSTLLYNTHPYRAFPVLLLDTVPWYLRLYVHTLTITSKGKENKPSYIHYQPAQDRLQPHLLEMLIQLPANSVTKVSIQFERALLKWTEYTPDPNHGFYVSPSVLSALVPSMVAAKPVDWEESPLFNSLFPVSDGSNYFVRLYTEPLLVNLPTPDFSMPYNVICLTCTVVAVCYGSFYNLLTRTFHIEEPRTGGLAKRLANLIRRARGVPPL

B1: PIGK C92A (enzyme)
chain: SHIEDQAEQFFRSGHTNNWAVLVCTSRFWFNYRHVANTLSVYRSVKRLGIPDSHIVLMLADDMAANPRNPKPATVFSHKNMELNVYGDDVEVDYRSYEVTVENFLRVLTGRIPPSTPRSKRLLSDDRSNILIYMTGHGGNGFLKFQDSEEITNIELADAFEQMWQKRRYNELLFIIDTCQGASMYERFYSPNIMALASSQVGEDSLSHQPDPAIGVHLMDRYTFYVLEFLEEINPASQTNMNDLFQVCPKSLCVSTPGHRTDLFQRDPKNVLITDFFGSVRKVEITTETIKLQQDSEIMESSYKEDQMDEKLMEPLKYAEQLPVAQIIHQKPKLKDWHPPGGFILGLWALIIMVFFKTYGIKHMKFIF
For B1, the apparent GPI-T activity: surface staining of the reporter GPI-AP CD59 on PIGK knockout cells by flow cytometry, compared to the wild-type PIGK (% of wild-type) was 61.
